Experimental data reported in a protein production outcome set (Wang et al. 2014).

Assay: label from the status in PepcDB records

MTSTETPLNSPAAAADRRRWFALAIVMTAAFMDLVDVTIVNIAIPSIQRDAGASWGQIQWITAGYALAFAAGLITGGRLGDIHGRKRLFLIGIGGFTLASALCGFAANPEMLVASRILQGGMAAMMVPQVLSIVHATFPAHERGKVFGLFGAIVGLGAVSGPLLGALLTEWNLFGLEWRPIFLINLPVGVAGLILGRRFITESKAPRALKLDLVGVALVTLGLLMLLYPLTRGRELGWPLWGHVSMAGALVVFAALVAYERRKTARDGSPLVELSLFKVKSFAAGIAVQTVFGIALGIFFLVWTLYMQMGLGWSALRAGLTGVPFSIAVSAAAGMSVQLLVPRFGRKVLQAGALLMALGVLLYIWESDRYGMAIASWQMALPLVVMGAGMGFIVAPLTDAVLSEVPREHSGSASGLINTVQQMGNALGLGLVSVVFFGEIGDRLTRAQVGPAFAHAFQHALGWVAVVLAVIFLLMFALPKRPAQHVEGAGAADTLGEKEPVLVP
protein production: failed

MTSTPGISDSLLSSMNGSGANNNTSAISETQDRFMKLLIAQMKNQDPLNPMDNAEVTSQMAQLSTVTGIEKMNASLSTFISSMQATQALQASSLIGNTVLVEGNSTYLAPAETEGESAAYLGVELPIGADKLTVNIKNGAGNVVKTITVTNQPAGISSLGWNGYGDDGTKLPDGRYTIEATATTGNSSVASTPLSYEQVMSVSTGSDGVKLNLSNLAAITTDQIKQIF
protein production: not failed

MTSVMPFAHLLLALLVVFVWGINFIFVKLSLEEFSPLLLCAVRFLLASVPAVFFIKPPAVPFKIIASYGLIMFALQFALLFIGLRVGMTPGVASLLMQVQVFFSMFFAIIFLGEQPQVGQIIGALIAFIGIGVVALHFDHNVSLMGFLCILAAAASWGIGNLITKKIHSVNLIAVIVWSSFVACLPMFILSLVFEGPESFVTAYEHMTWKGILSVLYIVYISTWVGYGVWNWLISRYPVGMVVPFTLLVPVVGILSSVLILGEPFYLWKLVAGLLVISGLCINLLTTRLFVAKTQQPETA
protein production: failed

MTSVTDRSAHSAERSTEHTIDIHTTAGKLAELHKRREESLHPVGEDAVEKVHAKGKLTARERIYALLDEDSFVELDALAKHRSTNFNLGEKRPLGDGVVTGYGTIDGRDVCIFSQDATVFGGSLGEVYGEKIVKVQELAIKTGRPLIGINDGAGARIQEGVVSLGLYSRIFRNNILASGVIPQISLIMGAAAGGHVYSPALTDFVIMVDQTSQMFITGPDVIKTVTGEEVTMEELGGAHTHMAKSGTAHYAASGEQDAFDYVRELLSYLPPNNSTDAPRYQAAAPTGPIEENLTDEDLELDTLIPDSPNQPYDMHEVITRLLDDEFLEIQAGYAQNIVVGFGRIDGRPVGIVANQPTHFAGCLDINASEKAARFVRTCDCFNIPIVMLVDVPGFLPGTDQEYNGIIRRGAKLLYAYGEATVPKITVITRKAYGGAYCVMGSKDMGCDVNLAWPTAQIAVMGASGAVGFVYRQQLAEAAANGEDIDKLRLRLQQEYEDTLVNPYVAAERGYVDAVIPPSHTRGYIGTALRLLERKIAQLPPKKHGNVPL
protein production: not failed

MTTANTPVRPKSAIDAVADAYTEKLIELNPSFATTLGLPGHETEYQDYSPAGAAAHAEATRLALEALAGLEPSDDVDAVTLDAMRERLGLELEIHQSGWDAADLNNIASPAQDIRAIFDLMPTDTVEHWEHIAGRAANVPGAIEGYIASLRAAKDDRKVAAARQIRIVIEQTGRYAAEDGFFAKMAADASLGDAPLPAEVQDKLDAGTSAARSAYSALGAFLRDELLPVAPEKDAVGRERYSLASRSFIGAEVDLEETYAWGVQELERLISEQEKVAGQIKPGASIEEAKSILNNDPARQIKGTDALKAWMQELSDRAVSELADVHFDIPDVMKTLECMIAPTDEGGIYYTGPSDDFSRPGRMWWSVPAGEDTFTTWSETTTVFHEGVPGHHLQVATATYRRELLNNWRRNVCWVSGHGEGWALYAEQLMLELGYLKDPGDHMGMLDGQRMRAARVVFDIGVHLELPVPERWGTGTWTPEKGFDFLKANLDISEGQLQFEFTRYLGWPGQAPSYKVGQRLWEQIRAELESREGFDLKSFHSKALNIGSVGLDVLRRALL
protein production: not failed

MTTCAPAVPAQLDVAGDLLALLRDTTTEPRPDIQLEALTLAVAADLPVLLWGEPGIGKTAALTQLATALDLPLTTVIASVHEPSDFSGLPVVGDDPAEQGVPMAPPDWAVRLVRAGRGLLFLDELSTAPPAVQAALLRLVLERRIGALRLPPGVRIVAAANPRSSAADGWELSPPLANRFVHLQWTHDQDVVVRGLGGTWPRAALPSLDPGGLDGAVRYARRAVCAFLTARPGLVHRLPSGETRRGGAWPSPRSWEMTLCLIAFATAAGSSREVLSLLVRGTVGDGPGLELMASLDRMDLPDPETLLADPAGAVLPERGDLRQAVLDGVVAAVRKRPEKSRWDSAWALLARAMETGAPDVVVVPATTLATLRQQDWDIPASIERLAGAMSLSRRADRAADRAAARLAGTARTSGLEHHHHHH
protein production: failed

MTTDNPLISIYMPTWNRQQLAIRAIKSVLRQDYRHWEMIIVDDCSSSYQQLQQFVEELNDPRVRYTHNARNTGACAVRNQAIMQAQGHYITGIDDDDEWTPNRLSVFLAHKHQLTTHAFLYANDYVCEGEVYSQPASLPLYPKSPYSRRLFYKRNIIGNQVFTWAWRFKASLFDTELKAAQDYDIFLRMVVEYGEPWKVEEATQILHINHGEMQITSSPKKFSGYFHFYRKHKDKFDRASKKYQLFTLYQIRNKRMTWRTLLTLLSVRNSKRLAAGLRGR
protein production: failed

MTTEIKKLDPDTAIDIAYDIFLEMAGENLDPADILLFNLQFEERGGVEFVETADDWEEEIGVLIDPEEYAEVWVGLVNEQDEMDDVFAKFLISHREEDREFHVIWKK
protein production: not failed

MTTFDAKKLKKEYLDWYNQILEFSNLSNNSVKIDTPFKDNSLDNLKIYALYDQSRDMITLTDDGYTIFGLENNGVSINKFKKRKKIFEEHLSAYGIKYNDKTHEIFVQTNFKNFNKSKHNLLQCLIFVNDMYLLSNPKSQNIFTEDVANKLDEHNIYYGRDIPIIGSSGVVHNFDFFISAKKNQKEKFINVFSNPNNSMIIKSKITDAMQAKKIKRHRQNEFIFILNDSKKEINEHNKNLLHENYISTIDYSELDEKIGLLI
protein production: failed

MTTGPALSSSEEGLMSEMPPAWCHTARADHSTPGTSPEMIPDTQGHWMPLRSRGLGALPGAFQAPQPLLSRLRHRLAPPRIVGTVSCRRLRTIVALGAARDSCTVGTQGRPGNSDLPAFPTSQVVRGKMGPGSQRTLVLLLLLLASPGARAFQSCLNKQQLLTTVRQLQQLLKGQETRFTEGIRNMKSRLTALQNTVSKMTPDAPPVSCPALDAPPNGKKFGSKYLVDHEVHFTCNPGFQLVGPSSVVCLANGTWTGEQPRCRDTSECSSQPCHNGGTCVEGVHHYRCICPPGKTGNRCQHQTQAAAPGGVAGDSAYSRAPRCAQVEREQHCSCEAGFHLSGTAGGHSVCQDVNECEIYGQEGRPRLCMHACVNTPGSYRCTCPSGYRILADGKSCEDVDECAGPQHMCPRGTTCINTGGGFQCVNPECPEGSGNISYVKTSPFQCERNPCPMDSRPCRHLPKTISFHYLSLPSNLKTPITLFRMATASVPGHPGPNSLRFGIVGGNSRGHFVMQRSDRQTGELILIQTLEGPQTLEVEVDMSEYLERSFQASHVSKVTIFVSRYDF
protein production: failed

MTTIFPPIPDRLRPLLRIAFMCGILATLPILCDVYAADEPPAARDEARPEEAAEPAATSAPAPAEQPVTFAITTILVERNTLFASDRLQEVMAPFVGDGKTADDVEKAREALEKFHHDQGYPTVIVNIPEQSVEEGIIRLQVVEQRINTVTVTGNRYFSREMILGKFPSLQPGGIPHVPTLQAEFTKAGRNPDLKITPAMAPSREVGYVDVELKIEEKLPLHGSLELNNRSSHDTSALRLNGAIRYDNLWQREHSVGLQYQTAPEKTREVQILSGSYVLPDPWHDDRRIVFYGVWSDTNTFASLGDMQVLGKGIIVGGRYLIPLAGKGLYNHSATLGIDYKRFDESAGFKTRVSYLPLSTAYDASLQDSTGYTLFNAGLNFAFRGAVTDQSEMAVKRSEAKGNYLAAILGLERQQKLPLGMGLRARIDGQLSSEPLIPNEQFVAGGMDSVRGYKESEALGDNGFHGTVELRVPDITLGSAMSMTPYVFYDMAAVELKKPLPGENRSQTLQGTGAGVRGMLFKFLEYQVDFAVALSDSDRIKEGDQRVHFRVSCAF
protein production: failed

MTTIRRFSCNDLLRFTSVNLDHLTETFNMSFYMTYLARWPDYFHVAEGPGNRVMGYIMGKVEGQGESWHGHVTAVTVSPEYRRQQLAKKLMNLLEDISDKIDKAYFVDLFVRASNTPAIKMYEKLGYIIYRRVLRYYSGEEDGLDMRKALSRDVEKKSVIPLKRPITPDELEYD
protein production: failed

MTTKAVLISSGVATVALLLKLSVPVAVDFSVSRAPILWSSLLSWLKPPYLYVVTNGIIITIVASSKYYRSHHDRDEEDEIVVYGGGGYKIQTEEPIVNQHQASPRILEVKDLDTGAHFGFVVANLEAEELESEAVTAVVFDDEEEEKKIIDSAATAEDEIEEELKSVIMVENSDLVESDVIPPPMMIESENLPPIEKPLVTSRFGHRKLMKASQEGGRALRVTKPKKNETLENTWKMITEGKSTPLTRQLYRRSDTFGRGDSGGVDGEVKPVYKKSDTFRDRTNYYQLAETAKVRKEPSLSQEELNRRVEAFIKKFNEEMKLQRMESLRQYKEITSRGV
protein production: failed

MTTKPRLCTALLTLAIAVSASAPVLAQSMAGGSAKNRYANQTKLDPYPPEGGWQGLANLLEAAKPGVDTRLDPTPSQITDRIEELLNRGANEEALSLIERREAAIKGQRGADVQLMFQHARALAALGRADEAIAVYSDMTTQFPELPEPWNNLAALYASRGELERAQDSLQMALRANPDYAAARANLGDIQLMMALRTYRQEEARGVPGMKARVEEIESLLKDKQPK
protein production: failed

MTTKRVKKMGKEEMKEMFDLVIYAFNQEPTAERQERFEKLLSHTQSYGFLIDEQLTSQVMATPFQVNFHGVRYPMAGIGYVASYPEYRGEGGISAIMKEMLADLAKQKVALSYLAPFSYPFYRQYGYEQTFEQAEYTIKTEDWPRVKRVPGTIKRVSWADGKEVIKDVYLENQRAHSGGVIRETWWLDYTLNRASKPNNQAIYYSSEGKAEGYVIYRIAAGTFEIVEWNYLTNTAFKALAGFIGSHSGSVQSFHWINGFAGKDLNDLMPTPAASVKILPYMMARIVELQTFLEKYPFQSGEKETYSLEIEDSYGPWNEGIWTITIDEQGKATVTKGAAEKEGTAALKADIQTWTQLFLGYRSAETLSFYERLQGDATIAQRLGQRLVKGMPILEDYF
protein production: not failed

MTTMQSRERLVKWLQDAYAMEKEAETMMAAMASRIEHYPELKRRIEQHVEETQQQSAGVQRCLELLNGSIPTAKGMLSSVLASMHAAGNSMMTDEVTKGVGISYAFEHLEIASYRALVVAARSAGEQEVAQICEDILQQEIEMAEWLIEHQEAIVVAFLEREQLEGVTAKR
protein production: not failed

MTTPPARTAKQRIQDTLNRLELDVDAWVSTAGADGGAPYLVPLSYLWDGETFLVATPAASPTGRNLSETGRVRLGIGPTRDLVLVEGTALPLEPAGLPDGVGDTFAEKTGFDPRRLTTSYLYFRISPRRVQAWREANELSGRELMRDGEWLVTD
protein production: not failed

MTTPSRRRLMRDFKKLQEDPPAGVSGAPTEDNILTWEAIIFGPQETPFEDGTFKLSLEFTEEYPNKPPTVKFISKMFHPNVYADGSICLDILQNRWSPTYDVAAILTSIQSLLDEPNPNSPANSLAAQLYQENRREYEKRVQQIVEQSWLNFGENEGDAVLKDDVEIEEIAAPGANDADDDRMDEGASGSNA
protein production: not failed
